Changes are numbered by the printed parent chain. Each block holds one binder with its values, some of them ahead of it.
Target: T1, human IL-23 (human, UniProt Q9NPF7 20-189; P29460 23-328)
T1 construct: Heterodimer p19/p40; in the ELISA captured on the plate through a biotinylated anti-p40 antibody (clone C8.6); also called cytokine IL-23 (eBioscience, 34-8239-85)
T1 sequence (looked up) 1: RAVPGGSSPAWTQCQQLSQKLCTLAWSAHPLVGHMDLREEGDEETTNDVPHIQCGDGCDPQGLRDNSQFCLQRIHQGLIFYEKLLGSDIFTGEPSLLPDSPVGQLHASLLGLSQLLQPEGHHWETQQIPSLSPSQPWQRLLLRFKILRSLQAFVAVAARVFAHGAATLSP
T1 sequence (looked up) 2: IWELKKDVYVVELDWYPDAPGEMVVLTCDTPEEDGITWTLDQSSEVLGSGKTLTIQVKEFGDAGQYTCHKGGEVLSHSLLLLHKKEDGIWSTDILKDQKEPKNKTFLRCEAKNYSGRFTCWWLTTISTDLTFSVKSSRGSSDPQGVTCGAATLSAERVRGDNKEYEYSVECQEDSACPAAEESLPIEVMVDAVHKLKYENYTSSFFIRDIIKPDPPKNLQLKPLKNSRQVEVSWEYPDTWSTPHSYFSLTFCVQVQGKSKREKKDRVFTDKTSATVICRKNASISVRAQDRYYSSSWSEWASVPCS
Assay: phage ELISA; IL-23 captured by anti-p40 antibody
Procedure: The set-up of the ELISA was as follows. Neutravidin was immobilized on the plate at a concentration of 0.010 mg/ml in PBS (0.100 ml) for 1 hour at room temperature (RT). Plates were washed 5 times with PBS containing 0.05% Tween 20 (PBST) for 5 min. Subsequently, 0.1 ml Biotinylated anti-p40 antibody (100 nM) was added to the plates in PBS containing 0.1% BSA and incubated overnight at 4° C. or at RT for 1 hour. After incubation, plates were washed 5 times with PBST and blocked with PBS containing 0.1% BSA and 0.5% gelatin (0.120 ml/well) for at least 1 hour at room temperature or overnight at 4° C. After washing 5 times with PBST, 100 nM IL-23 (target) was added to 0.1 ml PBS, 0.1% BSA. For individual negative controls no IL-23 was added (background).
In the meantime, the bacteria plates were centrifuged at 1700 rpm for 10 min to pellet the bacteria. Plates with the immobilized IL-23 were washed 5 times with PBST and 0.050 ml of PBS with 0.2% BSA were added to the plate together with 0.050 ml of the bacterial culture supernatant containing phage. Plates were incubated for 1 to 1.5 hours at room temperature while shaking. Shaking of the plates enhanced the ELISA signals.

binding result: binds
B1: SEQ ID NO 38 (designed binder)
chain: GSIEQIQKFIASIQESIARIQKSIYAMTGGSGGSGGGSIEQIQKQIAAIQKQIAAIQKQIYAMTGSGGGGSGGSIEQIQKQITAIARQIVAIIVQITAMTP
notes: Alphabody, AC12 library clone

binding result: binds
B2: SEQ ID NO 70 (designed binder)
chain: GSIEQIQKCIAFIQERIAGIQKRIYAMTGGSGGSGGGSIEQIQKQIAAIQKQIAAIQKQIYAMTGSGGGGSGGSIEQIQKQIFAIGKQIFAIVKQILAMTP
notes: Alphabody, AC12 library clone

binding result: binds
B3: SEQ ID NO 5 (designed binder)
chain: B1 chain with S12N, S16L, R19C, S23N, R87S, V90Y, I93V, V94A
notes: Alphabody, AC12 library clone

binding result: binds
B4: SEQ ID NO 4 (designed binder)
chain: GSIEQIQKTIAMIQEYIAWIQKKIYAMTGGSGGSGGGSIEQIQKQIAAIQKQIAAIQKQIYAMTGSGGGGSGGSIEQIQKQIRAIVGQIMAILRQITAMTP
notes: Alphabody, AC12 library clone

binding result: binds
B5: SEQ ID NO 31 (designed binder)
chain: B4 chain with M12R, Y16G, W19V, K23L, G87R, M90T, L93M, R94T, T97F
notes: Alphabody, AC12 library clone

binding result: binds
B6: SEQ ID NO 59 (designed binder)
chain: B1 chain with F9W, S12L, S16K, S23D, T83N, R87G, V90L, I93A, V94T, T97M
notes: Alphabody, AC12 library clone

binding result: binds
B7: SEQ ID NO 64 (designed binder)
chain: GSIEQIQKVIARIQEPIAVIQKMIYAMTGGSGGSGGGSIEQIQKQIAAIQKQIAAIQKQIYAMTGSGGGGSGGSIEQIQKQISAIRSQILAIIRQIFAMTP
notes: Alphabody, AC12 library clone

binding result: binds
B8: SEQ ID NO 36 (designed binder)
chain: B1 chain with S12P, S16Y, R19A, S23I, T83A, R87S, V90K, I93V, V94T, T97V
notes: Alphabody, AC12 library clone

binding result: binds
B9: SEQ ID NO 71 (designed binder)
chain: B2 chain with C9P, F12A, R16K, G19R, F83M, G86N, K87R, F90L, V93L, K94R
notes: Alphabody, AC12 library clone

binding result: binds
B10: SEQ ID NO 50 (designed binder)
chain: B1 chain with F9A, S12K, S16T, R19F, R87G, V90Y, I93L, V94Q, T97F
notes: Alphabody, AC12 library clone

binding result: binds
B11: SEQ ID NO 8 (designed binder)
chain: GSIEQIQKYIAPIQEIIAKIQKLIYAMTGGSGGSGGGSIEQIQKQIAAIQKQIAAIQKQIYAMTGSGGGGSGGSIEQIQKQIGAIISQIGAILGQIYAMTP
notes: Alphabody, AC12 library clone

binding result: binds
B12: SEQ ID NO 42 (designed binder)
chain: B7 chain with R12P, P16Y, V19I, M23Y, R86M, S87R, L90Y, R94S, F97Q
notes: Alphabody, AC12 library clone

binding result: binds
B13: SEQ ID NO 10 (designed binder)
chain: B2 chain with C9K, F12V, R16V, R23G, F83S, G86I, K87I, F90T, L97M
notes: Alphabody, AC12 library clone

binding result: binds
B14: SEQ ID NO 47 (designed binder)
chain: B2 chain with C9K, F12G, R16V, G19L, R23F, F83R, G86S, K87S, F90Q, K94L
notes: Alphabody, AC12 library clone

binding result: binds
B15: SEQ ID NO 9 (designed binder)
chain: B4 chain with T9K, M12T, W19Y, K23F, R83K, V86L, M90G, L93I, R94G, T97W
notes: Alphabody, AC12 library clone

binding result: binds
B16: SEQ ID NO 40 (designed binder)
chain: B1 chain with F9G, S12I, S16T, R19Y, V90T, V94A, T97F
notes: Alphabody, AC12 library clone

binding result: binds
B17: SEQ ID NO 13 (designed binder)
chain: B1 chain with F9R, S12P, S16C, R19F, S23L, A86G, V90M, I93F, V94I, T97W
notes: Alphabody, AC12 library clone

binding result: binds
B18: SEQ ID NO 73 (designed binder)
chain: B1 chain with S16C, R19S, S23V, T83G, R87A, V90I, I93V, V94E, T97V
notes: Alphabody, AC12 library clone

binding result: binds
B19: SEQ ID NO 25 (designed binder)
chain: B7 chain with V9Y, P16K, V19Y, S83I, R86G, I93L, R94D, F97Y
notes: Alphabody, AC12 library clone

binding result: binds
B20: SEQ ID NO 23 (designed binder)
chain: B1 chain with S16C, S23T, T83K, A86R, R87T, V90F, I93F, V94R, T97Y
notes: Alphabody, AC12 library clone

binding result: binds
B21: SEQ ID NO 65 (designed binder)
chain: B4 chain with M12K, Y16R, K23V, R83K, V86S, G87Y, M90I, L93M, T97L
notes: Alphabody, AC12 library clone

binding result: binds
B22: SEQ ID NO 61 (designed binder)
chain: B1 chain with F9R, S12G, S16Y, R19K, T83S, A86S, I93V, V94S, T97L
notes: Alphabody, AC12 library clone

binding result: binds
B23: SEQ ID NO 19 (designed binder)
chain: B4 chain with M12A, Y16C, W19R, K23A, G87S, M90S, R94I, T97G
notes: Alphabody, AC12 library clone

binding result: binds
B24: SEQ ID NO 6 (designed binder)
chain: B4 chain with T9G, M12L, Y16W, K23S, R83L, V86S, G87L, R94E, T97M
notes: Alphabody, AC12 library clone

binding result: binds
B25: SEQ ID NO 2 (designed binder)
chain: B7 chain with V9G, P16V, V19K, M23G, S83V, R86T, S87H, L90T, R94W, F97W
notes: Alphabody, AC12 library clone

binding result: binds
B26: SEQ ID NO 74 (designed binder)
chain: B1 chain with F9K, S12Y, S16M, R19L, S23G, T83S, R87A, V90S, V94K, T97M
notes: Alphabody, AC12 library clone

binding result: binds
B27: SEQ ID NO 20 (designed binder)
chain: B7 chain with P16V, V19S, M23Y, S83G, R86V, S87T, R94S, F97T
notes: Alphabody, AC12 library clone

binding result: binds
B28: SEQ ID NO 29 (designed binder)
chain: B2 chain with C9L, F12R, R16S, G19M, R23K, F83I, G86A, F90L, K94S, L97K
notes: Alphabody, AC12 library clone

binding result: binds
B29: SEQ ID NO 27 (designed binder)
chain: B7 chain with V9W, R12Q, P16N, V19D, M23L, S83P, R86A, S87Y, F97S
notes: Alphabody, AC12 library clone

binding result: binds
B30: SEQ ID NO 18 (designed binder)
chain: B2 chain with C9T, F12S, R16V, G19A, R23Y, F83A, K87S, F90I, K94R, L97R
notes: Alphabody, AC12 library clone

binding result: binds
B31: SEQ ID NO 22 (designed binder)
chain: B1 chain with F9M, S12P, S16L, S23D, T83G, A86T, V90L, I93L, T97G
notes: Alphabody, AC12 library clone

binding result: binds
B32: SEQ ID NO 43 (designed binder)
chain: B11 chain with Y9L, P12S, I16Y, K19T, G83S, I86M, S87I, G90N, Y97F
notes: Alphabody, AC12 library clone

binding result: binds
B33: SEQ ID NO 33 (designed binder)
chain: B2 chain with C9G, F12P, R16M, G19S, R23V, F83M, G86A, K87F, V93M, K94R
notes: Alphabody, AC12 library clone

binding result: binds
B34: SEQ ID NO 26 (designed binder)
chain: B4 chain with T9L, M12V, W19L, R83K, V86A, G87T, M90S, L93I, T97F
notes: Alphabody, AC12 library clone

binding result: binds
B35: SEQ ID NO 67 (designed binder)
chain: B2 chain with C9V, F12W, R16S, G19S, F83Q, G86A, K87N, F90T, K94R, L97I
notes: Alphabody, AC12 library clone

binding result: binds
B36: SEQ ID NO 3 (designed binder)
chain: B1 chain with F9R, S12F, S16T, R19W, S23N, T83S, V90R, I93L, V94G, T97F
notes: Alphabody, AC12 library clone

— US20140057830A1 (COMPLIX, published 2014)
